We go through 38 sequences from the supplement of paper PMC7877785.

The data set in a line: self-splicing fitness, log relative to wild type (ln ratio); higher = more splicing; Tetrahymena group I intron in knt gene, E. coli kanamycin selection, DiMSum; sequences stand for … in CUCUCU…GGAGGGAAAAGUUAUCAGGCAUGCACCUGGUAGCUAGUCUUUAAACCAAUAGAUUGCAUCGGUUUAAAAGGCAAGACCGUCAAAUUGCGGGAAAGGGGUCAACAGCCGUUCAGUACCAAGUCUCAGGGGAAACUUUGAGAUGGCCUUGCAAAGGGUAUGGUAAUAAGCUGACGGACAUGGUCCUAACCACGCAGCCAAGUCCUAAGUCAACAGAUCUUCUGUUGAUAUGGAUGCAGUUCACAGACUAAAUGUCGGUCGGGGAAGAUGUAUUCUUCUCAUAAGAUAUAGUCGGACCUCUCCUUAAUGGGAGCUAGCGGAUGAAGUGAUGCAACACUGGAGCCGCUGGGAACUAAUUUGUAUGCGAAAGUAUAUUGAUUAGUUUUGGAGUACUCGUGGUCG
An outline of the steps:
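DiMSum derived fitness as the error-weighted combination of fold changes across replicates, kanamycin versus no kanamycin, normalised to wild type. E. coli BL21(DE3) held the library, which randomised all eight P1ex-region intron nucleotides within the knt kanamycin-resistance gene on pET-22b(+). Six replicate transformations grew overnight at 37°C or 30°C on LB agar with or without 25 μg/mL kanamycin, also containing 100 μg/mL carbenicillin, 50 μM IPTG and 0.2% rhamnose, and pooled colonies were amplicon-sequenced on an Illumina HiSeq 2500.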

± gives the uncertainty stated by the source.

For the sequence AGUAAGCAAUAUUACGGCCA, the “self-splicing fitness (ln)” value is -0.532 ± 0.14 (30 °C) and -0.74 ± 0.16 (37 °C).

As to CUACAGCAAUAUUACGGGUU, the “self-splicing fitness (ln)” value reads like this: (30 °C) -3.18 ± 0.11; (37 °C) -2.94 ± 0.12.

For the sequence GGUAAGCAAUAUUACGCGUA, the “self-splicing fitness (ln)” value was -0.32 ± 0.21 (30 °C) and -0.425 ± 0.15 (37 °C).

In the case of GCUUAGCAAUAUUACGAGAU, the “self-splicing fitness (ln)” value by setting is: (30 °C) -1.36 ± 0.14; (37 °C) -1.02 ± 0.12.

GCAGAGCAAUAUUACGUUGC: under “37 °C”, the “self-splicing fitness (ln)” value was -1.06 ± 0.43.

On to UAACAGCAAUAUUACGUGUG, for which the “self-splicing fitness (ln)” value is -1.23 ± 0.042 (30 °C) and -0.692 ± 0.055 (37 °C).

Consider UACUAGCAAUAUUACGGAGU, for which the “self-splicing fitness (ln)” value reads like this: (30 °C) -3.43 ± 0.24; (37 °C) -3.25 ± 0.29.

Consider UUAUAGCAAUAUUACGCAUU, for which the “self-splicing fitness (ln)” value (30 °C) was -3.19 ± 0.23 and the “self-splicing fitness (ln)” value (37 °C) is -2.72 ± 0.2.

Take GACCAGCAAUAUUACGCAAU: the “self-splicing fitness (ln)” value by setting is: (30 °C) -0.846 ± 0.062; (37 °C) -0.343 ± 0.077.

Consider CGCUAGCAAUAUUACGUCCA, for which the “self-splicing fitness (ln)” value by setting is: (30 °C) -1.49 ± 0.27; (37 °C) -1.04 ± 0.29.

Take UACAAGCAAUAUUACGGAUA: the “self-splicing fitness (ln)” value is -1.38 ± 0.086 (30 °C) and -0.839 ± 0.092 (37 °C).

As for AUGGAGCAAUAUUACGUGUU, the “self-splicing fitness (ln)” value is -3.69 ± 0.15 (30 °C) and -3.73 ± 0.24 (37 °C).

Consider ACAUAGCAAUAUUACGUGUU, for which the “self-splicing fitness (ln)” value reads like this: (30 °C) -4.04 ± 0.17; (37 °C) -2.87 ± 0.14.

As for CCACAGCAAUAUUACGGUCG, the “self-splicing fitness (ln)” value is -0.147 ± 0.066 (30 °C) and 0.437 ± 0.086 (37 °C).

In the case of GCGCAGCAAUAUUACGGUUA, the “self-splicing fitness (ln)” value was -1.11 ± 0.084 (30 °C) and -0.631 ± 0.08 (37 °C).

On to GUAUAGCAAUAUUACGCCUG, for which the “self-splicing fitness (ln)” value is, setting by setting: (30 °C) -2.67 ± 0.11; (37 °C) -0.647 ± 0.1.

As to GAGGAGCAAUAUUACGGAAU, the “self-splicing fitness (ln)” value (30 °C) was -3.82 ± 0.37.

For AUCCAGCAAUAUUACGGGCU, the “self-splicing fitness (ln)” value reads like this: (30 °C) -3.07 ± 0.16; (37 °C) -2.64 ± 0.17.

Turning to UUACAGCAAUAUUACGAGUU, the “self-splicing fitness (ln)” value (30 °C) was -4.21 ± 0.21 and the “self-splicing fitness (ln)” value (37 °C) was -2.18 ± 0.14.

In the case of AGAGAGCAAUAUUACGUAAC, the “self-splicing fitness (ln)” value (37 °C) is -3.26 ± 0.31.

In the case of AGAGAGCAAUAUUACGUUAG, the “self-splicing fitness (ln)” value (30 °C) was -2.77 ± 0.19 and the “self-splicing fitness (ln)” value (37 °C) is -2.45 ± 0.29.

Take AAAGAGCAAUAUUACGACCG: the “self-splicing fitness (ln)” value by setting is: (30 °C) -3.83 ± 0.18; (37 °C) -2.5 ± 0.19.

In the case of CUCCAGCAAUAUUACGUGCG, the “self-splicing fitness (ln)” value was -3.63 ± 0.27 (30 °C) and -1.84 ± 0.18 (37 °C).

Turning to CUGAAGCAAUAUUACGGGCG, the “self-splicing fitness (ln)” value runs as follows: (30 °C) 0.0611 ± 0.06; (37 °C) -0.103 ± 0.074.

For the sequence CGGAAGCAAUAUUACGAUUC, the “self-splicing fitness (ln)” value by setting is: (30 °C) -3.95 ± 0.43; (37 °C) -2.28 ± 0.45.

In the case of GAGGAGCAAUAUUACGUGAU, under “37 °C”, the “self-splicing fitness (ln)” value is -2.02 ± 0.27.

Regarding ACCAAGCAAUAUUACGAGCG, the “self-splicing fitness (ln)” value (30 °C) is -0.886 ± 0.062 and the “self-splicing fitness (ln)” value (37 °C) was -1.31 ± 0.081.

Take AGAAAGCAAUAUUACGUCAG: the “self-splicing fitness (ln)” value was -1.94 ± 0.093 (30 °C) and -0.978 ± 0.11 (37 °C).

For AACUAGCAAUAUUACGACUC, the “self-splicing fitness (ln)” value was -0.19 ± 0.057 (30 °C) and 0.0401 ± 0.079 (37 °C).

AAGAAGCAAUAUUACGUGUA: the “self-splicing fitness (ln)” value runs as follows: (30 °C) -1.85 ± 0.11; (37 °C) -1.19 ± 0.092.

Consider AAGCAGCAAUAUUACGAUGC, for which the “self-splicing fitness (ln)” value was -1.38 ± 0.11 (30 °C) and -0.411 ± 0.13 (37 °C).

On to CGUCAGCAAUAUUACGGCCC, for which the “self-splicing fitness (ln)” value was -1.75 ± 0.17 (30 °C) and -0.728 ± 0.24 (37 °C).

On to AUCCAGCAAUAUUACGGCUA, for which the “self-splicing fitness (ln)” value is -0.15 ± 0.092 (30 °C) and -0.19 ± 0.08 (37 °C).

Regarding UAACAGCAAUAUUACGGUGG, the “self-splicing fitness (ln)” value is, setting by setting: (30 °C) -1.67 ± 0.067; (37 °C) -1.06 ± 0.084.

Turning to UGUAAGCAAUAUUACGCGUG, the “self-splicing fitness (ln)” value is, setting by setting: (30 °C) -0.994 ± 0.066; (37 °C) 0.0779 ± 0.079.

Take UAUUAGCAAUAUUACGGUUC: the “self-splicing fitness (ln)” value is, setting by setting: (30 °C) -3.84 ± 0.39; (37 °C) -3 ± 0.29.

As to UGGGAGCAAUAUUACGCUAU, the “self-splicing fitness (ln)” value is -1.67 ± 0.29 (30 °C) and -2.62 ± 0.38 (37 °C).

On to CCUGAGCAAUAUUACGAUCA, for which the “self-splicing fitness (ln)” value was -3.05 ± 0.32 (30 °C) and -2.42 ± 0.24 (37 °C).
